These results are taken from publication PMC6028548.

The target in one experiment is Kif18b_(500–593) (human). Description: SEC-MALS; Superdex 200 10/300 GL, MiniDAWN detector; protein at 2 mg/ml. A general note: SEC sorts molecules by how far they enter the pores of the column.
The target of experiment [1] is GMP-CPP–stabilized microtubules and dynamic microtubules grown from GMP-CPP seeds (TIRF assays) (UniProt P02550). Briefly: single-molecule TIRF microscopy; rhodamine-labeled GMP-CPP microtubules held on the glass by anti–β-tubulin antibodies; 1–10 nM motor in BRB80 with 1 mM ATP, 0.5 mg/ml casein, oxygen scavengers; 37°C.
Experiment [2] has as its target Kif18b-GFP-His (full-length Kif18-GFP-6×His) (human). Briefly: single-molecule photobleaching (TIRF microscopy); Kif18b-GFP motors moving on GMP-CPP–stabilized microtubules; bleaching steps and intensities of GFP.
Experiment [3] has the same target. Description: SEC-MALS; Superdex 200 10/300 GL, MiniDAWN detector; Kif18b-GFP-His at 0.3 mg/ml in gel filtration buffer (25 mM Hepes, pH 7.5, 150 mM NaCl, 300 mM KCl, 5 mM β-mercaptoethanol, 1 mM MgCl2, 1 mM Na-EGTA, 1 mM ATP).

In the case of Kif18b_(500–593) (domain or fragment), the stoichiometry N (commonly the number of molecules, sites or subunits per partner or assembly) in the experiment with Kif18b_(500–593) (human) stood at 2.
For the substance Kif18bΔC-GFP-His (domain or fragment), the dwell time at the microtubule plus end in experiment [1] was 8.5 s.
On to “Kif18b-GFP-His (full-length Kif18-GFP-6×His) (natural protein)”, for which the stoichiometry N in experiment [2] and in experiment [3] was 2 throughout. For the same substance, the dwell time at the microtubule plus end in experiment [1] amounted to 22.8 s.
